Test results: patent US20240209061A1, “FUSION PROTEINS AND USES THEREOF” (Pfizer Inc., priority 2020, published 2024)

Experiments:
[1] = Thermal forced aggregation (SEC); assay type: physicochemical; conditions: Table 11, 24 hours, PBS
Procedure: To assess the aggregation propensity of variant CD80-Fc fusion proteins, 1 mg/ml of CD80-Fc fusion protein was incubated in PBS at increasing temperatures for 24 hours. The samples were analyzed by SEC on an Agilent 1100 (Agilent Technologies, Germany) HPLC system using a YMC-Pack Diol-200 (YMC, Germany) analytical size exclusion chromatography column and PBS supplemented to 400 mM NaCl as running buffer. % aggregation was calculated from the loss of intact peak area. […] ND=Not Determined.

[2] = system: B16F10 murine melanoma cells; assay: B16F10 melanoma model, combination with αPD1 antibody; assay type: in vivo, mouse; conditions: CD80-D90Q-E23C-A26C-Fc 3 mg/kg and/or αPD1 Ab 10 mg/kg
Procedure: B16F10 murine melanoma cells (0.5 million) were subcutaneously implanted in the hind flank of female C57BL/6J mice. When tumors reached ˜100 mm3, mice were randomized and dosed with PBS vehicle control, 3 mg/kg CD80-D90Q-E23C-A26C-Fc, and or 10 mg/kg murine αPD1 antibody. CD80-D90Q-E23C-A26C-Fc was dosed on Days 0 and 3, αPD1 antibody was dosed on Days 0, 3 and 6. Tumor volume was determined by caliper measurements obtained in 2 dimensions and calculated as width^2×length/2. Error bars are depicted as ±SEM

[3] = system: human peripheral blood mononuclear cells (PBMCs); assay: Human PBMC IL-2 production assay with plate-bound anti-CD3; assay type: cell-based; conditions: average of 5 PBMC donors; 1 μg/ml anti-CD3; 48 hours
Procedure: The ability of the variant CD80-Fc fusion proteins to promote IL-2 production in the context of anti-CD3 (to stimulate T cell receptor signaling) in human peripheral blood mononuclear cells (PBMCs) was tested. To bind anti-CD3 antibody on the plate, the anti-human-CD3 (clone HIT3a, BD Pharmingen) was incubated in 96-well plates at 4° C. overnight at 1 μg/ml unless otherwise noted. Human PBMCs were isolated from freshly collected human whole blood using Ficoll-Paque Plus. Human PBMCs (100,000 per well) were incubated with plate-bound anti-CD3 and the indicated concentrations of soluble CD80-Fc fusion protein in RPMI+10% HI-FBS, pen/strep, sodium pyruvate and non-essential amino acids. After 48 hours incubation, supernatants were collected and IL-2 measured by the Quantikine human IL-2 ELISA kit from R&D.
Additional CD80-Fc fusion proteins were tested in the same PBMC assay, at the concentration of anti-human-CD3 (clone HIT3a, BD Pharmingen) noted.

[4] = system: CT26 murine colorectal carcinoma tumor cells; assay: CT26 murine colorectal carcinoma model; assay type: in vivo, mouse; conditions: for Day 10 tumor volume: Days 0 and 3; for % tumor growth inhibition: Day 10
Procedure: CT26 murine colorectal carcinoma tumor cells (1×10^6) were subcutaneously implanted in the hind flank of female Balb/c mice. When tumors reached ˜100 mm3 (Day 8), mice were randomized. PBS vehicle control or variant CD80-Fc fusion proteins were dosed intravenously at 0.1 and 1.0 mg/kg on Days 0 and 3. Tumor volume was determined by caliper measurements obtained in 2 dimensions and calculated as width^2×length/2. Error bars are depicted as ±SEM.
IFNγ ELIspot was used to measure tumor-reactive T cells in the spleen in mice treated with CD80-Fc fusion proteins at a 1 mg/kg dose.
Cytotoxic CD8^+ T cells are responsible for killing cancer cells and the measurement of CD8^+ T cells that have infiltrated tumors commonly correlates with efficacy for immune-oncology therapies. For all in vivo studies, tumors were collected ˜1 week after the first dose and dissociated by mincing, followed by incubation in an enzymatic digestion cocktail and homogenization. The resulting cell suspension was filtered and washed, and single cells were stained with antibodies to CD45, CD8, and a viability dye to detect tumor-infiltrating lymphocytes (TILs) by flow cytometry. Data were acquired on a BD LSRFortessa flow cytometer or a Cytek Aurora spectral flow cytometer. Table 31 and FIG. 18 show the amount of tumor-infiltrating CD8+ T cells expressed as a percentage of total immune cells (CD45+). Each value is the average of n=4 mice per group. Treatment with all variant CD80-Fc fusion proteins led to increase in CD8+ TILs in various tumor models.

[5] = system: peripheral blood mononuclear cells (PBMC); assay: RESTORE cytokine release assay in absence of TCR stimulation; assay type: cell-based, human; design: IFNγ: unit not given beside the values; conditions: Table 20
Procedure: The ability of variant CD80-Fc fusion proteins to promote cytokine release in the absence of TCR stimulation was assessed in the RESTORE (RESetting T cells to Original Reactivity) assay (Römer et al, Blood, 2011). Freshly isolated peripheral blood mononuclear cells (PBMC) from whole blood of several healthy donors were cultured for 48 hours at […] within RPMI1640 media supplemented with 10% autologous plasma, 10 mM HEPES, 1× GlutaMAX, 1× PenStrep, beta2-mercaptoethanol, NEAA and sodium pyruvate. Following the 48-hour incubation, PBMC were pelleted and resuspended at a final concentration of 10^6/ml with indicated soluble drug. Treatment was allowed for 48 hours then supernatant was harvested and assessed in IL-2 and IFNγ ELISA according to manufacturer's protocol (BioLegend).
Positive controls included CD28 superagonist anti-CD28 clone TGN1412 as IgG1 and IgG4 isotypes and anti-CD3. […] Values shown are the average of 3 technical replicates. D=Donor.

[6] = Pharmacokinetics in huFcRn transgenic mice; conditions: 0.1 mg/kg IV
Procedure: PK of CD80-Fc fusion proteins was also assessed in transgenic mice expressing the human neonatal Fc receptor (huFcRn) a-chain transgene under the control of its natural human promoter. Female mice were dosed intravenously with CD80-Fc fusion proteins at 0.1 mg/kg, and blood was collected at the timepoints indicated on the graph. Levels of CD80-Fc in mouse plasma were measured as described above.

CD80-D90Q-E23C-A26C-Fc: disulfide stabilized variant CD80-Fc fusion protein (D90Q, E23C, A26C)
% aggregation ([1]; 40° C.): 0.0%
% aggregation ([1]; 45.3° C.): 0.1%
% aggregation ([1]; 49.4° C.): 0.1%
% aggregation ([1]; 54.9° C.): 0.5%
% aggregation ([1]; 59.1° C.): 26.2%
% aggregation ([1]; 64° C.): 68.8%
Day 10 tumor volume [2]: 1208.8 mm^3
% tumor growth inhibition ([2]; Day 10): 26.3%
EC50 [3]: 24.2 ± 10 nM
Number of tumor regressions ([4]; 0.1 mg/kg): 2/10
Day 10 tumor volume ([4]; 0.1 mg/kg IV): 388.9 mm^3
% tumor growth inhibition ([4]; 0.1 mg/kg): 67.53%
Number of tumor regressions ([4]; 1 mg/kg): 9/10
Day 10 tumor volume ([4]; 1 mg/kg IV): 197.8 mm^3
% tumor growth inhibition ([4]; 1 mg/kg): 83.49%
# IFNγ-producing spots (tumor-reactive T cells in spleen) ([4]; 1 mg/kg, average of n = 4 mice): 523.1875
IFNγ ([5]; D222, 1 μg/ml): 4.0
IL-2 ([5]; D222, 1 μg/ml): 7.0
IFNγ ([5]; D222, 10 μg/ml): 4.7
IL-2 ([5]; D222, 10 μg/ml): 11.0
IFNγ ([5]; D281, 1 μg/ml): 5.0
IL-2 ([5]; D281, 1 μg/ml): 2.0
IFNγ ([5]; D281, 10 μg/ml): 6.3
IL-2 ([5]; D281, 10 μg/ml): 2.0
IFNγ ([5]; D462, 1 μg/ml): 7.3
IL-2 ([5]; D462, 1 μg/ml): 1.7
IFNγ ([5]; D462, 10 μg/ml): 6.0
IL-2 ([5]; D462, 10 μg/ml): 2.0
IFNγ ([5]; D547, 1 μg/ml): 3.3
IL-2 ([5]; D547, 1 μg/ml): 4.3
IFNγ ([5]; D547, 10 μg/ml): 5.0
IL-2 ([5]; D547, 10 μg/ml): 12.0
AUC [6]: 88000 ng·h/mL
CL [6]: 15.8 mL/day/kg
T1/2 [6]: 148 h
Vdss [6]: 0.131 L/kg
Cmax ([6]; average of 3 animals): 1400 ng/mL
